Patent publication US20250115669A1, “FGFR1/KLB Targeting Agonistic Antigen-Binding Proteins and Conjugates Thereof with GLP-1R Agonistic Peptides” (SANOFI, priority 2020, published 2025)
Where two headings read alike, the source gives them in different places.

Key:
[1] = molecular target: cynomolgus monkey beta-Klotho; assay: SPR binding affinity and kinetics to cynomolgus monkey beta-Klotho (Biacore 8K, anti-human Fc capture); design: species or system Cynomolgus monkey (Macaca fascicularis); settings: 1:1 binding model, read-out: KD monkey KLB
Description: (§1) Binding affinity and kinetics were measured on a Biacore 8K instrument (GE Healthcare). For the affinity capture of the diluted mAb sample, an anti-human Fc antibody (human antibody capture kit, GE Healthcare) was immobilized on all eight channels of a series S CM5 sensor chip (GE Healthcare) to approximately 10.000 RU. The anti-beta-Klotho antibodies were diluted into HBS-EP+ assay buffer (GE Healthcare) to 0.04 μg/mL. The antibodies were injected in the sample compartment, whereas the reference compartment was used without captured antibody. […] For the antigen inject the flow rate was adjusted to 60 μL/min with an association time of 180 sec and a dissociation time of 1800 sec. The maximum binding signal of beta-Klotho was in the range of 30 RU. At the end of each cycle an inject of regeneration solution, supplied with human antibody capture kit (GE Healthcare), supplemented with 10% non-specific binding reducer (GE Healthcare), for 1 min at 30 μL/min to remove antibody and antigen was performed. Binding kinetics data were evaluated with a 1:1 binding model using the Biacore 8K Evaluation Software version 1.1.1.7442 (GE Healthcare).
(§2) For interaction analysis with human beta-klotho, mAbs were captured via an anti-human Fc antibody immobilized on a series S CM5 sensor chip (human antibody capture kit, GE Healthcare). […] Binding kinetics data were evaluated with a 1:1 binding model using the Biacore 8K Evaluation Software version 1.1.1.7442 (GE Healthcare). For interaction analysis with Cynomolgus monkey beta-klotho, mAbs were captured via an anti-human Fc antibody immobilized on a series S CM5 sensor chip (human antibody capture kit, GE Healthcare). […] Binding kinetics data were evaluated with a 1:1 binding model using the Biacore 8K Evaluation Software version 1.1.1.7442 (GE Healthcare). Exemplary sensorgrams for the interaction are shown in FIG. 7 (human KLB) and 8 (monkey KLB), as well as in Table G.

[2] = Capillary isoelectric focusing (cIEF); format: physicochemical
Description: Charge heterogeneity of the antibody samples was determined by capillary isoelectric focusing (cIEF) using a Maurice C device (Protein Simple). The samples were prepared by the cIEF protocol given by the manufacturer with an ampholyte mix 3-10 (Protein Simple) and peptide pl markers of 5.85 and 9.0 (Protein Simple). cIEF runs were analyzed using Compass Software v2.1.0 (Protein Simple).

[3] = molecular target: T1, human beta-Klotho (Homo sapiens, UniProt Q86Z14); assay: SPR binding affinity and kinetics to human beta-Klotho (Biacore 8K, anti-human Fc capture)
T1 sequence (Q86Z14 1-1044): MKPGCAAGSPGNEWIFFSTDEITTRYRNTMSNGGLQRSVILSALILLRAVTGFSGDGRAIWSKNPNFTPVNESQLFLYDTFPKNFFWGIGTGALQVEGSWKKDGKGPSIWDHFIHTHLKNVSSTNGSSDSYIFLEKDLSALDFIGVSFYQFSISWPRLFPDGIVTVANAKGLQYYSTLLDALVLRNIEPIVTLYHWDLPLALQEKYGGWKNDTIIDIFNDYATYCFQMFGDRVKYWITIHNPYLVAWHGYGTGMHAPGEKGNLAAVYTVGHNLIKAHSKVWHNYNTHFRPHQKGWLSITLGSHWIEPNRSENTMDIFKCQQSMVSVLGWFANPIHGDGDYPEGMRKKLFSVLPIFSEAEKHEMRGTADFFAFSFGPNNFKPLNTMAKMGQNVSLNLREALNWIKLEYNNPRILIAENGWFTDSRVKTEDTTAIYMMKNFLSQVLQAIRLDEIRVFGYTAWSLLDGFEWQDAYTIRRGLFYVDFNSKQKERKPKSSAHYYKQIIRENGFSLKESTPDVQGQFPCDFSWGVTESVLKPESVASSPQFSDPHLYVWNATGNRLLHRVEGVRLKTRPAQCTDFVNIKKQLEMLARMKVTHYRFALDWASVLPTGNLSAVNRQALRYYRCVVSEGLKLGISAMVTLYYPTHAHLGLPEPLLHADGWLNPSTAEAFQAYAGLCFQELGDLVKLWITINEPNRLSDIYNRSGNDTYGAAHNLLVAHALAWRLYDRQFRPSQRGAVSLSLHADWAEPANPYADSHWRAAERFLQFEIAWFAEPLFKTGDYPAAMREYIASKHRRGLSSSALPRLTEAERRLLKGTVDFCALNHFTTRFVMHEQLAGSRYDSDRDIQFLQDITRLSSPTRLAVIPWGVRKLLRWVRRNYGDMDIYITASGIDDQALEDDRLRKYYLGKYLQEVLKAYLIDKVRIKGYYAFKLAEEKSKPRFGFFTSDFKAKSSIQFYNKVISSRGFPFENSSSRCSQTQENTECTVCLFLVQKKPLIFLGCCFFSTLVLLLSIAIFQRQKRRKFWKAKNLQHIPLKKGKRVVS
Description: as §1, §2

[4] = In vivo PK in transgenic humanized FcRn mice (Tg32); settings: 0.3 mg/kg single IV, plasma, noncompartmental analysis
Description: In vivo PK studies were conducted in transgenic humanized FcRn mice (Tg32). For these studies, no GLP compliance was claimed.

[5] = Intact mass spectrometry (IMS); format: physicochemical; settings: for intact mass Identity confirmed / intact mass Peak intensity post stress: 21 days
Description: Protein integrity was analyzed by LC-MS. […] Reversed phase (RP) chromatography was done using a PLRP-S 1000A 5 μm, 50×2.1 mm (Agilent) with a guard column PLRP-S 300A 5 μm, 3×5 mm (Agilent) at 200 μL/min and 80° C. column temperature. Eluents were buffer A containing LC water and 0.1% formic acid as well as buffer B containing 90% acetonitrile, 10% LC water and 0.1% formic acid. 1 μg of protein was injected onto the column and eluted using linear gradient from 0 to 17 minutes with increasing acetonitrile concentration. Data was analyzed using MassHunter Bioconfirm B.06 (Agilent). Molecular masses were calculated based on the amino acid sequences of the proteins using GPMAW software version 10 (Lighthouse data).

[6] = SPR, 1:1 binding model, read-out: KD human KLB

Substance | Kd [1] [nM] | Charge homogeneity cIEF % main peak [2] [%] | Charge homogeneity cIEF Number of peaks [2] | Charge homogeneity cIEF pI [2] | cIEF % Main peak ([2]; pH 5, 40° C., d 21) [%] | cIEF Number of peaks ([2]; pH 5, 40° C., d 21) | cIEF % Main peak ([2]; pH 5, d 0) [%] | cIEF Number of peaks ([2]; pH 5, d 0) | cIEF % Main peak ([2]; pH 6, 40° C., d 21) [%] | cIEF Number of peaks ([2]; pH 6, 40° C., d 21) | cIEF % Main peak ([2]; pH 6, d 0) [%] | cIEF Number of peaks ([2]; pH 6, d 0) | cIEF % Main peak ([2]; pH 8, 40° C., d 21) [%] | cIEF Number of peaks ([2]; pH 8, 40° C., d 21) | cIEF % Main peak ([2]; pH 8, d 0) [%] | cIEF Number of peaks ([2]; pH 8, d 0) | Kd [3, 6] [nM] | Kd ([3]; read-out: Affinity SPR KD) [nM] | t½ [4] [days] | Identity, correct pairing, intact mass, Identity confirmed [5] | also measured
Ab0331: IgG4 PE; 16H7 VL (N25S, D49S, D50E, D91E, N93E); 16H7 VH (M34V, I83T, D109E); HC SEQ ID NO: 38, LC SEQ ID NO: 45 | 3.49 | 73 | 5 | 6.9 | 59 | 5 | 73 | 5 | 57 | 4 | 73 | 5 | 14 | 6 | 72 | 5 | 0.206 | 0.21 | 14.9 | Yes | affinity to human KLB compared to 16H7 [3]: comparable affinity; intact mass Identity confirmed ([5]; pH 5, 40° C.): Yes; intact mass Peak intensity post stress ([5]; pH 5, 40° C.): 84%; intact mass Identity confirmed ([5]; pH 6, 40° C.): Yes; intact mass Peak intensity post stress ([5]; pH 6, 40° C.): 97%; intact mass Identity confirmed ([5]; pH 8, 40° C.): Yes; intact mass Peak intensity post stress ([5]; pH 8, 40° C.): 75%
Ab0430: IgG1 NNAS; 16H7 VL (N25S, D49E, D50E, D91E, N93E); 16H7 VH (M34V, I83T, D109E); HC SEQ ID NO: 43, LC SEQ ID NO: 50 | 2.96 | 21.7 | 8 | 7.2-7.9 | 21 | 8 | 22 | 9 | 20 | 9 | 22 | 8 | 4.4 | 11 | 22 | 9 | 0.286 | 0.29 | 15.7 | Yes | intact mass Identity confirmed ([5]; pH 5, 40° C.): Yes; intact mass Peak intensity post stress ([5]; pH 5, 40° C.): 80%; intact mass Identity confirmed ([5]; pH 6, 40° C.): Yes; intact mass Peak intensity post stress ([5]; pH 6, 40° C.): 81%; intact mass Identity confirmed ([5]; pH 8, 40° C.): Yes; intact mass Peak intensity post stress ([5]; pH 8, 40° C.): 54%
Ab0429: IgG1 NNAS; 16H7 VL (N25S, D49S, D50A, D91E, N93E); 16H7 VH (M34V, I83T, D109E); HC SEQ ID NO: 42, LC SEQ ID NO: 49 | 2.2 | 21.3 | 9 | 7.5-8.5 | 20 | 9 | 21 | 8 | 23 | 8 | 21 | 9 | 9.7 | 10 | 21 | 8 | 0.186 | 0.19 | 13.9 | Yes | intact mass Identity confirmed ([5]; pH 5, 40° C.): Yes; intact mass Peak intensity post stress ([5]; pH 5, 40° C.): 95%; intact mass Identity confirmed ([5]; pH 6, 40° C.): Yes; intact mass Peak intensity post stress ([5]; pH 6, 40° C.): 83%; intact mass Identity confirmed ([5]; pH 8, 40° C.): Yes; intact mass Peak intensity post stress ([5]; pH 8, 40° C.): 68%
Ab0428: IgG1 NNAS; 16H7 VL (N25S, D49S, D50E, D91E, N93E); 16H7 VH (M34V, I83T, D109E); HC SEQ ID NO: 41, LC SEQ ID NO: 48 | 2.54 | 20.4 | 8 | 7.3-8.0 | 15 | 8 | 21 | 8 | 21 | 8 | 20 | 8 | 11 | 9 | 21 | 9 | 0.205 | 0.21 | 13.8 | Yes | intact mass Identity confirmed ([5]; pH 5, 40° C.): Yes; intact mass Peak intensity post stress ([5]; pH 5, 40° C.): 84%; intact mass Identity confirmed ([5]; pH 6, 40° C.): Yes; intact mass Peak intensity post stress ([5]; pH 6, 40° C.): 87%; intact mass Identity confirmed ([5]; pH 8, 40° C.): Yes; intact mass Peak intensity post stress ([5]; pH 8, 40° C.): 56%
